Measured values from the RNAGym collection of RNA variant scans (doi:10.7554/elife.80360).

B1: Hairpin Ribozyme (parent)
chain: GUCCUCUUUCACGUGCGCGUGAAAGAGAGAAGUGAACCAGAGAAACACACGUUGUGGUAUAUUACCUGGUA

Variants of: B1
Assay: self-cleavage, relative activity (ratio to wild type); higher = more cleavage; co-transcriptional

Variant | self-cleavage
U5G G17U | 0.177
U5G G17A | 0.362
C6A G29C | 0.123
U5G C10A | 0.235
U5G C10G | 0.164
U5G U52A | 0.444
U5A A23C | 0.436
U5A A23U | 0.323
C4U A39C | 0.251
C4U A39G | 0.122
U5C C10A | 0.427
U5C C10U | 0.423
C6A U8C | 0.344
C4U U53A | 0.358
C6A C38A | 0.141
U5A G54U | 0.327
U5A G54C | 0.124
U5A G54A | 0.192
C6A A30U | 0.0998
U5A A59C | 0.262
C4U G17U | 0.313
C4U G17C | 0.266
C6A G25C | 0.64
C6A G25U | 0.763

Variant | self-cleavage
U5C U58G | 0.318
U5G C16A | 0.435
U5G C12A | 0.124
U5C U55C | 0.2
U5C U55A | 0.21
C4U G54U | 0.198
U5G A64G | 0.177
U5G A64C | 0.155
U5G G68C | 0
U5G G68U | 0.156
C6A U63C | 0.191
C6A U63A | 0.144
U5C G17C | 0.339
U5A C48A | 0.0341
U5G A22G | 0.251
U5C A45U | 0.133
U5C A45G | 0.157
U5C A22G | 0.63
U5C A11G | 0.481
U5C A11U | 0.55
U5C C50G | 0.147
U5G G29U | 0.168
C6A G42U | 0.223
C6G A28C | 0.145

Variant | self-cleavage
C6G A28U | 0.22
C6G A28G | 0.605
U5A C65A | 0.22
U5A C65U | 0.222
U5A C65G | 0.276
C4U G32A | 0.196
U5A A61G | 0.0553
U5A A61U | 0.185
C4U G40U | 0.0478
U5A G21A | 0.378
U5A G21C | 0.156
C6A U55C | 0.243
U5C U62C | 0.0289
C4U U8C | 0.241
U5A G19A | 0.395
U5A U52G | 0.392
U5A U52C | 0.274
U5G A26C | 0.68
U5G U9C | 0.197
C6A A39C | 0.436
U5A A41G | 0.162
U5G U33G | 0.0612
C6A A43C | 0.197
C6A A43G | 0.223

Variant | self-cleavage
C6A G69A | 0.23
U5G G21U | 0.324
C4U U58C | 0.495
C6A C66G | 0.109
C6A C66A | 0.198
C6A C66U | 0.247
C6A A47G | 0.157
U5A A26G | 0.244
C4U C10U | 0.224
C6A G19C | 0.55
U5G G57C | 0.0591
C4U C66U | 0.234
U5A A35C | 0.364
C4U C46U | 0.152
U5A A28C | 0.297
U5A A28G | 0.471
U5A A28U | 0.126
C6A A22C | 0.541
C6A A22U | 0.352
U5A U33A | 0.145
U5C G27A | 0.247
U5A C38G | 0.0942
C6A G21U | 0.542
C6A G21A | 0.6

Variant | self-cleavage
U5C U9C | 0.457
C6A G51C | 0.531
C6A U33A | 0.129
U5C A39U | 0.228
C4U A44C | 0.102
U5C C66A | 0.143
U5C U52C | 0.636
U5C U52G | 0.608
U5A A30U | 0.263
U5A A30G | 0.119
U5C G68U | 0.127
U5C G68A | 0.14
C6A A44C | 0.0999
C6A A44U | 0.167
C6A A44G | 0.113
U5A G56A | 0.214
U5C C16A | 0.693
U5C G25A | 0.265
C6A G17C | 0.424
U5G C18U | 0.243
U5G A59G | 0.0492
U5G A59C | 0.13
C6A U52G | 0.547
C4U G13U | 0.314

Variant | self-cleavage
C4U G13C | 0.282
C6A C37G | 0.287
U5C U67A | 0.0797
C6A U58A | 0.457
U5A U70G | 0.171
U5G U7A | 0.2
C4U A36U | 0.227
U5G U53G | 0.179
U5G U53A | 0.455
C6A G34U | 1
U5G U55A | 0.139
U5G U55C | 0.121
C6A C12A | 0.52
U5G U63C | 0.116
U5G C66U | 0.223
C4U G27A | 0.722
U5G G40A | 0.0651
U5C A28U | 0.277
U5C A28G | 0.358
U5C U60A | 0.392
U5A G69C | 0.0571
U5A G69A | 0.0903
U5A G69U | 0.115
C4U G29C | 0.108

Variant | self-cleavage
C6A U70A | 0.598
C6A U70C | 0.618
C6A C18A | 0.649
C6A C18G | 0.43
C6A C18U | 0.708
U5C U14A | 0.428
C6A A64C | 0.148
C6A A64U | 0.163
U5C A61U | 0.105
U5C U20C | 0.673
U5C U20G | 0.508
C6A G68U | 0.181
C6A G68C | 0.13
C4U A71C | 0.622
C4U G21A | 0.389
C6A U9C | 0.262
C6A U9A | 0.417
U5C G51C | 0.732
U5C G51U | 0.704
U5G U58C | 0.25
U5G U58A | 0.272
C6A U14C | 0.579
U5C G32U | 0.132
